The source of these data is publication doi:10.1101/789552 (bioRxiv, 2019).

Where two headings read alike, the source gives them in different places.

Holding throughout (test): non-reducing SDS-PAGE with Western blot
(In general: Immunoblotting shows a protein as a band on a membrane.)

Series [1] deals with the molecule itself.
Series [2] deals with the molecule itself. This is another data set of the same source.
Series [3] deals with the molecule itself. The source holds these as a separate data set.

B1: CAP2 (endogenous, rat hippocampus and primary hippocampal neurons) (natural protein, UniProt P52481 1-477, looked up)
chain: MADMLGLMQRLEFAVSRLERLSSGLHEPPGGCGEVNSLSRGIVAPSVEAFDKLINSMVAEFLKNSRVLAGDVETHAEMVHGAFQAQRAFLLMVSQHQQPQENEVAVLLKPISEKIQEIQTFRERNRGSDMFNHLSAVSESIAALGWIAVSPKPGPYVKEMNDAATFYTNRVLRDYKHSDLRHVDWVRSYLKIWSELQAYIKEHHTTGLTWSKTGPVASTASAFSILSSGPGLPPPPPPPPPPGPPPPFENEGGKEEPSPSRSALFAQLNQGEAITKGLRHVTDDKKIYKNPSLRAQGQIRSPTKTRTPSPTSSKSNSPQKHAPVLELEGKKWRVEYQEDRNDLVISETELKQVAYIFKCDKSTLQIKGKVNSITVDNCKKFGLVFDHVVGIVEVINSKDIQIQVMGRVPTISINKTEGCHLYLSKDALDCEIVSAKSSEMNVLVPQGDDYREFPIPEQFKTIWDGSKLITEPAEIMA
Regarding B1, in series [1], the “stoichiometry N” value amounted to 2.

B2: CAP2 monomer (endogenous, human hippocampus) (natural protein, human (endogenous in hippocampus), UniProt P40123 1-477, looked up)
chain: MANMQGLVERLERAVSRLESLSAESHRPPGNCGEVNGVIAGVAPSVEAFDKLMDSMVAEFLKNSRILAGDVETHAEMVHSAFQAQRAFLLMASQYQQPHENDVAALLKPISEKIQEIQTFRERNRGSNMFNHLSAVSESIPALGWIAVSPKPGPYVKEMNDAATFYTNRVLKDYKHSDLRHVDWVKSYLNIWSELQAYIKEHHTTGLTWSKTGPVASTVSAFSVLSSGPGLPPPPPPLPPPGPPPLFENEGKKEESSPSRSALFAQLNQGEAITKGLRHVTDDQKTYKNPSLRAQGGQTQSPTKSHTPSPTSPKSYPSQKHAPVLELEGKKWRVEYQEDRNDLVISETELKQVAYIFKCEKSTIQIKGKVNSIIIDNCKKLGLVFDNVVGIVEVINSQDIQIQVMGRVPTISINKTEGCHIYLSEDALDCEIVSAKSSEMNILIPQDGDYREFPIPEQFKTAWDGSKLITEPAEIMA
On to B2, for which the “stoichiometry N” value in series [1] is 2.

B3: CAP2 (endogenous, mouse hippocampus) (natural protein, mouse (endogenous in hippocampus), UniProt Q9CYT6 1-476, looked up)
chain: MTDMAGLMERLERAVIRLEQLSAGLDGPPRGCGEVNGVNGGVAPSVEAFDKLINSMVAEFLKNSRVLAGDVETHAEMVHGAFQAQRAFLLMVSQYQQPQENEVAVLLKPISEKIQEIQTFRERNRGSNMFNHLSAVSESIAALGWIAVSPKPGPYVKEMNDAATFYTNRVLKDYKHSDLRHVDWVRSYLNIWSELQAYIREHHTTGLTWSKTGPVASTASAFSILSSGPGLPPPPPPPPPPGPPPPFENEDKKEEPSPSRSALFAQLNQGEAITKGLRHVTDDKKTYKNPSLRAQGQIRSPTKTHTPSPTSPKSNSPQKHTPVLELEGKKWRVEYQEDRNDLVISETELKQVAYIFKCDKSTLQIKGKVNSITVDNCKKFGLVFDHVVGIVEVINSKDIQIQVMGRVPTISINKTEGCHLYLSEDALDCEIVSAKSSEMNVLVPQDDDYREFPIPEQFKTIWDGSKLVTEPAEIMA
Regarding B3, the “stoichiometry N” value in series [1] turned out to be 2.

B4: Myc-CAP2 (natural protein, UniProt Q9CYT6 1-476, looked up)
chain: MTDMAGLMERLERAVIRLEQLSAGLDGPPRGCGEVNGVNGGVAPSVEAFDKLINSMVAEFLKNSRVLAGDVETHAEMVHGAFQAQRAFLLMVSQYQQPQENEVAVLLKPISEKIQEIQTFRERNRGSNMFNHLSAVSESIAALGWIAVSPKPGPYVKEMNDAATFYTNRVLKDYKHSDLRHVDWVRSYLNIWSELQAYIREHHTTGLTWSKTGPVASTASAFSILSSGPGLPPPPPPPPPPGPPPPFENEDKKEEPSPSRSALFAQLNQGEAITKGLRHVTDDKKTYKNPSLRAQGQIRSPTKTHTPSPTSPKSNSPQKHTPVLELEGKKWRVEYQEDRNDLVISETELKQVAYIFKCDKSTLQIKGKVNSITVDNCKKFGLVFDHVVGIVEVINSKDIQIQVMGRVPTISINKTEGCHLYLSEDALDCEIVSAKSSEMNVLVPQDDDYREFPIPEQFKTIWDGSKLVTEPAEIMA
Take B4: the “stoichiometry N” value in series [2] turned out to be 2.

B5: Streptag-CAP2 (natural protein, UniProt Q9CYT6 1-476, looked up)
chain: MTDMAGLMERLERAVIRLEQLSAGLDGPPRGCGEVNGVNGGVAPSVEAFDKLINSMVAEFLKNSRVLAGDVETHAEMVHGAFQAQRAFLLMVSQYQQPQENEVAVLLKPISEKIQEIQTFRERNRGSNMFNHLSAVSESIAALGWIAVSPKPGPYVKEMNDAATFYTNRVLKDYKHSDLRHVDWVRSYLNIWSELQAYIREHHTTGLTWSKTGPVASTASAFSILSSGPGLPPPPPPPPPPGPPPPFENEDKKEEPSPSRSALFAQLNQGEAITKGLRHVTDDKKTYKNPSLRAQGQIRSPTKTHTPSPTSPKSNSPQKHTPVLELEGKKWRVEYQEDRNDLVISETELKQVAYIFKCDKSTLQIKGKVNSITVDNCKKFGLVFDHVVGIVEVINSKDIQIQVMGRVPTISINKTEGCHLYLSEDALDCEIVSAKSSEMNVLVPQDDDYREFPIPEQFKTIWDGSKLVTEPAEIMA
Take B5: in series [3], the “stoichiometry N” value came to 2.

The term stoichiometry N denotes the number of molecules, sites or subunits per partner or assembly.
